The record followed here is patent US20230025129A1 (KYMAB, published 2023).

The target in assay [1] is T1, human matriptase-2 mask ECD protein his tag (human, UniProt Q8IU80 78-576).
T1 construct: MTP-2 ECD without the serine protease domain, with C-terminal linker and His tag; also called headless huMTP-2 ECD 78-576 aa; headless human MTP-2 ECD
T1 sequence: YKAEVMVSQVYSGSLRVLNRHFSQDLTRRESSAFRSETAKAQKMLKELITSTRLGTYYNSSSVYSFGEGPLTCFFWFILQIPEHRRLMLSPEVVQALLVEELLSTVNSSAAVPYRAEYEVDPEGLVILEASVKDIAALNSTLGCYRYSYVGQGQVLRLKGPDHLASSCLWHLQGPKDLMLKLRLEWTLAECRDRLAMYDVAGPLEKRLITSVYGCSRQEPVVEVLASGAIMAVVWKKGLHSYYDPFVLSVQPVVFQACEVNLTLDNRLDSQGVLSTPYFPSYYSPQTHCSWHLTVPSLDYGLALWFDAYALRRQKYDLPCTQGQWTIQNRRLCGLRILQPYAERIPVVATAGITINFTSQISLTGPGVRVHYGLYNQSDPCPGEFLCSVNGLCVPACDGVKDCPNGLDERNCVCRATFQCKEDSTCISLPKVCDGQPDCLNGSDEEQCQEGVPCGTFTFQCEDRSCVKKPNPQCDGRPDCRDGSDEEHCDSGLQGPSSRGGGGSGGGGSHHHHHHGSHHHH
In words: SPR, antibody captured, headless ECD as analyte. On the procedure: (§1) Off-rate screening was performed by surface plasmon resonance (SPR), using a Biacore 8K system (GE Healthcare). Anti-human Fc mix (˜1000 RU) were immobilised in both active and reference channels in HBS-P+ buffer (GE BR100671) pH 7.4. Anti-MTP-2 hulgG4PE antibodies were then captured for 60 sec at 10 μl/min at 1 μg/ml concentration (approximatively 35 and 50 RU were captured) only on the active channel. MTP-2 ECD protein analytes were then injected (at 100, 25, 6.25, 1.56 and 0 nM concentrations) for 120 sec (association time) at 30 μl/min and dissociation monitored for 600 sec. Multiple cycle kinetics mode was used with all 8 channels being used. Reference and background were subtracted from the sensorgrams for each antibody and data was fitted using a 1:1 interaction model in the Biacore evaluation software. Rmax, ka, kd globally fitted, RI=0.
Binding was also assessed using the above SPR method with “headless” huMTP-2 ECD 78-576 aa instead of the full ECD. Headless ECD corresponds to the MTP-2 ECD without the serine protease domain.
A general note: In SPR one partner is held on a chip, and binding of the other changes the refractive index at the surface.

Assay [2] addresses T2, human matriptase-2 ECD protein his tag (human, UniProt Q8IU80 78-811).
T2 construct: also called human MTP-2 ECD; huMTP-2
T2 sequence: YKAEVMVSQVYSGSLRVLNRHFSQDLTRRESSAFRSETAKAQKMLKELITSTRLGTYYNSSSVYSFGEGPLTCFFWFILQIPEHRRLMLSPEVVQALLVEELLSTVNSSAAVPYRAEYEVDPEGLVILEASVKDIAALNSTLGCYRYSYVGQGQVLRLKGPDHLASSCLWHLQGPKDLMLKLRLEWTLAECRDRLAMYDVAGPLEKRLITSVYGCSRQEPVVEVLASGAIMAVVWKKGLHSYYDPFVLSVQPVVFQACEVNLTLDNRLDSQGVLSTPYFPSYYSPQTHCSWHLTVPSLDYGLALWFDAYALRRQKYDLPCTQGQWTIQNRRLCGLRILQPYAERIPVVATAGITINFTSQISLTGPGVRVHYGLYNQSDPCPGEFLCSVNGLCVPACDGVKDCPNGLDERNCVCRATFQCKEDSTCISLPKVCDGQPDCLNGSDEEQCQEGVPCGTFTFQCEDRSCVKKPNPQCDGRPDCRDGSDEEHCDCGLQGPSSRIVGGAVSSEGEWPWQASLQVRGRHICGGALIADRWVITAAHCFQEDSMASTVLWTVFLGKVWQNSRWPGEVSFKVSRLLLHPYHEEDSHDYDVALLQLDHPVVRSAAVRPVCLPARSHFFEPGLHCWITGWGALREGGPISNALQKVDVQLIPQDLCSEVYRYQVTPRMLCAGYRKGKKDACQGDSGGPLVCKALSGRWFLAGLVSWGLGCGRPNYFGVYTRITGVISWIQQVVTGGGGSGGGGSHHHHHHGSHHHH
The experiment in a line: SPR (Biacore 8K), huIgG4PE captured on anti-human Fc, MTP-2 ECD as analyte, 1:1 fit. On the procedure:
as §1

Assay [3] concerns the target T3, mouse matriptase-2 ECD protein his tag (mouse, UniProt Q9DBI0 80-811).
T3 construct: aa 80-811 of Q9DBI0 with C-terminal linker and His tag; also called mouse MTP-2 ECD; moMTP-2
T3 sequence: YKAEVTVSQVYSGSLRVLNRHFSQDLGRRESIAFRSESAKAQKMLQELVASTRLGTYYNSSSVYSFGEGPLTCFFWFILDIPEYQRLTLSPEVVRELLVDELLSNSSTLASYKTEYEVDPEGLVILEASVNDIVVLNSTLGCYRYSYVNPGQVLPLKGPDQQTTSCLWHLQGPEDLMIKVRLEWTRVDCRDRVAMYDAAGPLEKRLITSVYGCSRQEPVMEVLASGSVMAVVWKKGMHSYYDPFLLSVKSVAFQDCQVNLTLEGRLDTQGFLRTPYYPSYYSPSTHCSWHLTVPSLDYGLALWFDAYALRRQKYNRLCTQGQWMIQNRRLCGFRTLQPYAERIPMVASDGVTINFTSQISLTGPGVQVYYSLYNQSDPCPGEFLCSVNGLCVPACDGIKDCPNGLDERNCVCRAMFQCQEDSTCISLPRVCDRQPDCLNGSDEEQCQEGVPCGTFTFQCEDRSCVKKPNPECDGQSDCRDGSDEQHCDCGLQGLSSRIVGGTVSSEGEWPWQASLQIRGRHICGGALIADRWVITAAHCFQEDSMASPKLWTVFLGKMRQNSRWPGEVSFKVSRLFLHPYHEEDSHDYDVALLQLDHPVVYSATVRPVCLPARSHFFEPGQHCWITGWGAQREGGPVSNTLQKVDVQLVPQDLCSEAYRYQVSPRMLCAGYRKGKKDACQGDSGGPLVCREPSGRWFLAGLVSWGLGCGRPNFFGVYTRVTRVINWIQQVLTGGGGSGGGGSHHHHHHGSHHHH
Described as above. As for the experimental part: as §1

Assay [4] deals with T4, human MTP-2 expressed on HEK293 cells (human, UniProt Q8IU80 1-811).
T4 sequence: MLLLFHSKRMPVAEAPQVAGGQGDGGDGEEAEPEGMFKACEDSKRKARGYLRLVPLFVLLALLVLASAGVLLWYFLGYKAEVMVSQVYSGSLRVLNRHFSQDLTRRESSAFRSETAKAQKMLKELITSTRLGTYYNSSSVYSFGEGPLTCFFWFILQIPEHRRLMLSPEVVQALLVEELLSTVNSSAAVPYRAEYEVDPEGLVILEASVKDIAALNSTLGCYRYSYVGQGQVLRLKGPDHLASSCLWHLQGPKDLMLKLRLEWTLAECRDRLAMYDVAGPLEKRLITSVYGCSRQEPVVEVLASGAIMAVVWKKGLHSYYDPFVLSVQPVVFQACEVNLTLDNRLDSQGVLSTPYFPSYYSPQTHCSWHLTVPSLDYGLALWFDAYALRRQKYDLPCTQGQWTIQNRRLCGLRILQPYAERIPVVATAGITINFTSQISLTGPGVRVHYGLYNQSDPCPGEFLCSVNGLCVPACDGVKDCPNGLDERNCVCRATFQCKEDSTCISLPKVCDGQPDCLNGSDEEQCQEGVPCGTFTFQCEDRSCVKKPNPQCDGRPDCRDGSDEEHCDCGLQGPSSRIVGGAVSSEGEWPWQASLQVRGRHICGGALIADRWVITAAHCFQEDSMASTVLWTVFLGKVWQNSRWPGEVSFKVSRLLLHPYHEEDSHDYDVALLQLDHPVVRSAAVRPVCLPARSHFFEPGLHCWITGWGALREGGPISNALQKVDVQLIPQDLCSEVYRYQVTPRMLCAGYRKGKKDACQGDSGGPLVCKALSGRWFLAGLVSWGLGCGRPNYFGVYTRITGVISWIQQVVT
In words: cell-based or functional assay.

The target of assay [5] is T2, human matriptase-2 ECD protein his tag. In words: cell-based or functional assay.
Assay [6] deals with T3, mouse matriptase-2 ECD protein his tag. The experiment in a line: cell-based or functional assay.

As a reminder, the Kd is the free concentration of one partner at which half of the binding sites on the other are occupied at equilibrium, for simple one-to-one binding. Read a high Kd as a looser complex. As usually defined, the koff is the rate constant with which the complex falls apart. In general, kon refers to a measure of how fast the partners come together. A higher kon goes with faster complex formation.

B1: NORI-010 (antibody, human IgG4 S228P, lambda)
heavy: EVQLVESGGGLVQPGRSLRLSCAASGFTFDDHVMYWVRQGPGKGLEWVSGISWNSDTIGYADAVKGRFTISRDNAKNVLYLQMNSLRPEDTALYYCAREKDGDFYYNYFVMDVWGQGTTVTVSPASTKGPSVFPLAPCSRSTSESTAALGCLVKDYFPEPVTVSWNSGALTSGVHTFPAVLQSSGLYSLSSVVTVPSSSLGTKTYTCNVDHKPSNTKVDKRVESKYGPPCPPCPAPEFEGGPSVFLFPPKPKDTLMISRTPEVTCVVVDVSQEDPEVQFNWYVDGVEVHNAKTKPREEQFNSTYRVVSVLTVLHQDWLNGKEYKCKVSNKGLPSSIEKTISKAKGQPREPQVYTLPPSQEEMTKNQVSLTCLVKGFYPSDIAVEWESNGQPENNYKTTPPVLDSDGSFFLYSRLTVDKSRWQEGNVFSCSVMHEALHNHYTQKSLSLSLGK
light: QSALTQPPSASGSPGQSVTISCTGTSSDVGFYNFVSWYQQHPDKAPKVMIYEVSKRPSGVPDRFSGSKSGNTASLTVSGLQAEDEADYYCSSYAGSNKVVFGGGTKLTVLGQPKAAPSVTLFPPSSEELQANKATLVCLISDFYPGAVTVAWKADSSPVKAGVETTTPSKQSNNKYAASSYLSLTPEQWKSHRSYSCQVTHEGSTVEKTVAPTECS
notes: human IgG4PE, lambda
For B1, in assay [1], the binding result was “no binding (tested: analyte up to 100 nM)”. Besides, in assay [2], the “Binding Late top conc” value is 7.9; the affinity, expressed as Kd, was 10.5 nM; the Stoichiometry turned out to be 0.63; the koff was found to be 0.000442 s⁻¹. This molecule also yielded a kon in assay [2] of 42300 M⁻¹ s⁻¹. In assay [3], the “Binding Late top conc” value is 4.5, the dissociation constant (Kd) stood at 24.4 nM, the koff came out at 0.000324 s⁻¹ and the kon came to 13300 M⁻¹ s⁻¹. Moreover, the “Inhibition enzymatic activity human MTP2 on cells (IC50)” value in assay [4] came out at 3.51 nM. The “Inhibition enzymatic activity human MTP2 protein (IC50)” value in assay [5] worked out at 17.7 nM. Further, the “Inhibition enzymatic activity mouse MTP2 protein (IC50)” value in assay [6] is 9.76 nM.

B2: NORI-012 (antibody, human IgG4 S228P, lambda, V domains shown)
VH: EVQLVESGGGLVQPGRSLRLSCAASGFTFDDHVMYWVRQAPGKGLEWVSGISWNSDTIGYADAVKGRFTISRDNAKNVLYLHMNSLRPEDTALYYCAREKDGDFYYNYFVMDVWGQGTTVTVSP
VL: QSALTQPPSASGSPGQSVTISCTGTSSDVGFYNFVSWYQQHPDKAPKVMIYEVSKRPSGVPDRFSGSKSGNTASLTVSGLQAEDEADYYCSSYAGSNKVVFGGGTKLTVLG
notes: human IgG4PE, lambda
Turning to B2, the binding result in assay [1] is “no binding (tested: analyte up to 100 nM)”. Further, in assay [2], the “Binding Late top conc” value amounted to 8.5, binding was put at a Kd of 9.13 nM, the Stoichiometry was determined as 0.6 and the off-rate constant (koff) is 0.000427 s⁻¹. The same molecule had a kon in assay [2] of 46700 M⁻¹ s⁻¹. In addition, in assay [3], the “Binding Late top conc” value was 4.6, the Kd came out at 29 nM, the Stoichiometry is 1.08 and the koff is 0.000337 s⁻¹. For the same molecule, the kon in assay [3] came to 11600 M⁻¹ s⁻¹. Also, the “Inhibition enzymatic activity human MTP2 on cells (IC50)” value in assay [4] is 4.26 nM. In addition, the “Inhibition enzymatic activity human MTP2 protein (IC50)” value in assay [5] was determined as 21.2 nM. Further, the “Inhibition enzymatic activity mouse MTP2 protein (IC50)” value in assay [6] worked out at 11.5 nM.

B3: NORI-009 (antibody, human IgG4 S228P, lambda, V domains shown)
VH: EVQLVESGGGLVQPGRSLRLSCAASGFTFNDHVIYWVRQVPGKGLEWVSTISWNSDTIAYADSVKGRFTISRDNAKNALYLQMNSLRTEDTALYYCAREKDGDFYYDYFAMDVWGQGTTVTVSS
VL: QSALTQPPSASGSPGQSVTLSCTGTSSDVGYYNYVSWYLQHPGKAPKLMIYEVSKRPSGVPDRFSGSKSANTASLTVSGLQAEDEADYYCSSYAGSNKVVFGGGTKVTVLG
notes: human IgG4PE, lambda
Turning to B3, the binding result in assay [1] is reported as “no binding (tested: analyte up to 100 nM)”. In addition, in assay [2], the “Binding Late top conc” value was 8.6, the Kd was determined as 15 nM, the Stoichiometry worked out at 0.48 and the koff was 0.00112 s⁻¹. For the same molecule, the kon in assay [2] is 74800 M⁻¹ s⁻¹. In addition, in assay [3], the “Binding Late top conc” value is 5, binding was put at a Kd of 19.6 nM, the Stoichiometry is 0.47 and the koff was 0.000693 s⁻¹. In assay [3], this molecule returned a kon of 35400 M⁻¹ s⁻¹. Besides, the “Inhibition enzymatic activity human MTP2 on cells (IC50)” value in assay [4] is 5.68 nM. For the same molecule, the “Inhibition enzymatic activity human MTP2 protein (IC50)” value in assay [5] came out at 55.5 nM. In addition, the “Inhibition enzymatic activity mouse MTP2 protein (IC50)” value in assay [6] was 17.6 nM.
